Experimental findings from patent US20210261648A1 (published 2021) are described below.

Experiment in all cases: SPR binding amount, relative to IL6R-BF648/IL6R-L
Experiment [1] addresses T1, FcγRIa extracellular domain with C-terminal His tag (human, UniProt P12314 16-292).
T1 construct: also called FcgRIa; not shown: His tag attached to the C terminus

Experiment [2] addresses T2, FcγRIIb extracellular domain with C-terminal His tag (human, UniProt P31994 43-217).
T2 construct: extracellular domain; For crystallography it was expressed with kifunensine and trimmed with Endo F1; also called FcgRIIb; FcγRIIb extracellular region; not shown: His tag attached to the C terminus
T2 sequence (looked up): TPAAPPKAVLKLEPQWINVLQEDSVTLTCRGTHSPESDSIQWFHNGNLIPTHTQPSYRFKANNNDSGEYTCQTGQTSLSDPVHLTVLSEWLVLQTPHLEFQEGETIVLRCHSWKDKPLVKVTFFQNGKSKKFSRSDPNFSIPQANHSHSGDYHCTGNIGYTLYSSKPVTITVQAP

Experiment [3] has as its target T3, FcγRIIa type H extracellular domain with C-terminal His tag (human, UniProt P12318 34-217).
T3 construct: extracellular domain; also called FcγRIIaH; FcgRIIaH; not shown: His tag attached to the C terminus
T3 sequence (looked up): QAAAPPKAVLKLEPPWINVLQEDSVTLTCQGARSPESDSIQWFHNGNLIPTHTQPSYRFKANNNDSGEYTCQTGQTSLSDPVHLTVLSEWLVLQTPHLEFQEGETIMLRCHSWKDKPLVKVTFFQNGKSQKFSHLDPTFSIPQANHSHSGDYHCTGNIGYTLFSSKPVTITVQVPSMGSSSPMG

T1 sequence (P12314 16-292): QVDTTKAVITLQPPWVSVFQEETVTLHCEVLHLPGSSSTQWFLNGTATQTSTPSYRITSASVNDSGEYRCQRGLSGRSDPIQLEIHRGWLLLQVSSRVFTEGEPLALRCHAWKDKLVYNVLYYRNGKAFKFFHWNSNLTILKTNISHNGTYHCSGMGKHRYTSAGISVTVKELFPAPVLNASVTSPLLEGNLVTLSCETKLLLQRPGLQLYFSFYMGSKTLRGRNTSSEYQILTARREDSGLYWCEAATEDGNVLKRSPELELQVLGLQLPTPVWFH

B1: IL6R-BP117/IL6R-L (antibody, human IgG1, kappa)
heavy: QVQLQESGPGLVKPSETLSLTCAVSGHSISHDHAWSWVRQPPGEGLEWIGFISYSGITNYNPSLQGRVTISRDNSKNTLYLQMNSLRAEDTAVYYCARSLARTTAMDYWGEGTLVTVSSASTKGPSVFPLAPSSKSTSGGTAALGCLVKDYFPEPVTVSWNSGALTSGVHTFPAVLQSSGLYSLSSVVTVPSSSLGTQTYICNVNHKPSNTKVDKKVEPKSCDKTHTCPPCPAPELLGGDSVFLFPPKPKDTLMISRTPEVTCVVVDVSHEDPEVKFNWYVDGVEVHNAKTKPREEQYNSTYRVVSVLTVLHQDWLNGKEYKCKVSNDALPAPIEKTISKAKGQPREPQVYTLPPSRDELTKNQVSLTCLVKGFYPSDIAVEWESNGQPENNYKTTPPVLDSDGSFFLYSKLTVDKSRWQQGNVFSCSVMHEALHNHYTQESLSLSP
light: not shown
notes: Alterations introduced into IL6R-B3
As to B1, the “relative binding activity (IL6R-BF648/IL6R-L = 100)” value (shortened to “relative binding activity”) in experiment [1] was 124; in experiment [2] it was 118; in experiment [3] it was 96.

B2: IL6R-BP136/IL6R-L (antibody, human IgG1, kappa)
heavy: QVQLQESGPGLVKPSETLSLTCAVSGHSISHDHAWSWVRQPPGEGLEWIGFISYSGITNYNPSLQGRVTISRDNSKNTLYLQMNSLRAEDTAVYYCARSLARTTAMDYWGEGTLVTVSSASTKGPSVFPLAPSSKSTSGGTAALGCLVKDYFPEPVTVSWNSGALTSGVHTFPAVLQSSGLYSLSSVVTVPSSSLGTQTYICNVNHKPSNTKVDKKVEPKSCDKTHTCPPCPAPELLGGDSVFLFPPKPKDTLMISRTPEVTCVVVDVSHEDPEVKFNWYVDGVEVHNAKTKPREEQYNSTYRVVSVLTVLHQDWLNGKEYKCKVSNAALPAPIEKTISKAKGQPREPQVYTLPPSRDELTKNQVSLTCLVKGFYPSDIAVEWESNGQPENNYKTTPPVLDSDGSFFLYSKLTVDKSRWQQGNVFSCSVMHEALHNHYTQESLSLSP
light: not shown
notes: as for B1
B2: the “relative binding activity” value in experiment [1] was determined as 117; in experiment [2] it was 119; in experiment [3], 103.

B3: IL6R-BP911/IL6R-L (antibody, human IgG1, kappa)
heavy: QVQLQESGPGLVKPSETLSLTCAVSGHSISHDHAWSWVRQPPGEGLEWIGFISYSGITNYNPSLQGRVTISRDNSKNTLYLQMNSLRAEDTAVYYCARSLARTTAMDYWGEGTLVTVSSASTKGPSVFPLAPSSKSTSGGTAALGCLVKDYFPEPVTVSWNSGALTSGVHTFPAVLQSSGLYSLSSVVTVPSSSLGTQTYICNVNHKPSNTKVDKKVEPKSCDKTHTCPPCPAPELLGGDSVFLFPPKPKDTLMISRTPEVTCVVVDVSHEDPEVKFNWYVDGVEVHNAKTKPREEQYNSTYRVVSVLTVLHQDWLNGKEYKCKVSNKALPKPIEKTISKAKGQPREPQVYTLPPSRDELTKNQVSLTCLVKGFYPSDIAVEWESNGQPENNYKTTPPVLDSDGSFFLYSKLTVDKSRWQQGNVFSCSVMHEALHNHYTQESLSLSP
light: not shown
notes: as for B1
With B3, the “relative binding activity” value was 52 in experiment [1], 119 in experiment [2] and 108 in experiment [3].

B4: IL6R-BP119/IL6R-L (antibody, human IgG1, kappa)
heavy: QVQLQESGPGLVKPSETLSLTCAVSGHSISHDHAWSWVRQPPGEGLEWIGFISYSGITNYNPSLQGRVTISRDNSKNTLYLQMNSLRAEDTAVYYCARSLARTTAMDYWGEGTLVTVSSASTKGPSVFPLAPSSKSTSGGTAALGCLVKDYFPEPVTVSWNSGALTSGVHTFPAVLQSSGLYSLSSVVTVPSSSLGTQTYICNVNHKPSNTKVDKKVEPKSCDKTHTCPPCPAPELLGGDSVFLFPPKPKDTLMISRTPEVTCVVVDVSHEDPEVKFNWYVDGVEVHNAKTKPREEQYNSTYRVVSVLTVLHQDWLNGKEYKCKVSNMALPAPIEKTISKAKGQPREPQVYTLPPSRDELTKNQVSLTCLVKGFYPSDIAVEWESNGQPENNYKTTPPVLDSDGSFFLYSKLTVDKSRWQQGNVFSCSVMHEALHNHYTQESLSLSP
light: not shown
notes: as for B1
On to B4, for which the figures for the “relative binding activity” value in experiment [1], in experiment [2] and in experiment [3] were 117, 110 and 133, respectively.

B5: IL6R-BP126/IL6R-L (antibody, human IgG1, kappa)
heavy: QVQLQESGPGLVKPSETLSLTCAVSGHSISHDHAWSWVRQPPGEGLEWIGFISYSGITNYNPSLQGRVTISRDNSKNTLYLQMNSLRAEDTAVYYCARSLARTTAMDYWGEGTLVTVSSASTKGPSVFPLAPSSKSTSGGTAALGCLVKDYFPEPVTVSWNSGALTSGVHTFPAVLQSSGLYSLSSVVTVPSSSLGTQTYICNVNHKPSNTKVDKKVEPKSCDKTHTCPPCPAPELLGGDSVFLFPPKPKDTLMISRTPEVTCVVVDVSHEDPEVKFNWYVDGVEVHNAKTKPREEQYNSTYRVVSVLTVLHQDWLNGKEYKCKVSNLALPAPIEKTISKAKGQPREPQVYTLPPSRDELTKNQVSLTCLVKGFYPSDIAVEWESNGQPENNYKTTPPVLDSDGSFFLYSKLTVDKSRWQQGNVFSCSVMHEALHNHYTQESLSLSP
light: not shown
notes: as for B1
For B5, the “relative binding activity” value came out at 113 in experiment [1], 103 in experiment [2] and 132 in experiment [3].

B6: IL6R-BP121/IL6R-L (antibody, human IgG1, kappa)
heavy: QVQLQESGPGLVKPSETLSLTCAVSGHSISHDHAWSWVRQPPGEGLEWIGFISYSGITNYNPSLQGRVTISRDNSKNTLYLQMNSLRAEDTAVYYCARSLARTTAMDYWGEGTLVTVSSASTKGPSVFPLAPSSKSTSGGTAALGCLVKDYFPEPVTVSWNSGALTSGVHTFPAVLQSSGLYSLSSVVTVPSSSLGTQTYICNVNHKPSNTKVDKKVEPKSCDKTHTCPPCPAPELLGGDSVFLFPPKPKDTLMISRTPEVTCVVVDVSHEDPEVKFNWYVDGVEVHNAKTKPREEQYNSTYRVVSVLTVLHQDWLNGKEYKCKVSNQALPAPIEKTISKAKGQPREPQVYTLPPSRDELTKNQVSLTCLVKGFYPSDIAVEWESNGQPENNYKTTPPVLDSDGSFFLYSKLTVDKSRWQQGNVFSCSVMHEALHNHYTQESLSLSP
light: not shown
notes: as for B1
B6: the “relative binding activity” value was 118 in experiment [1], 113 in experiment [2] and 135 in experiment [3].

B7: IL6R-BP912/IL6R-L (antibody, human IgG1, kappa)
heavy: QVQLQESGPGLVKPSETLSLTCAVSGHSISHDHAWSWVRQPPGEGLEWIGFISYSGITNYNPSLQGRVTISRDNSKNTLYLQMNSLRAEDTAVYYCARSLARTTAMDYWGEGTLVTVSSASTKGPSVFPLAPSSKSTSGGTAALGCLVKDYFPEPVTVSWNSGALTSGVHTFPAVLQSSGLYSLSSVVTVPSSSLGTQTYICNVNHKPSNTKVDKKVEPKSCDKTHTCPPCPAPELLGGDSVFLFPPKPKDTLMISRTPEVTCVVVDVSHEDPEVKFNWYVDGVEVHNAKTKPREEQYNSTYRVVSVLTVLHQDWLNGKEYKCKVSNKALPRPIEKTISKAKGQPREPQVYTLPPSRDELTKNQVSLTCLVKGFYPSDIAVEWESNGQPENNYKTTPPVLDSDGSFFLYSKLTVDKSRWQQGNVFSCSVMHEALHNHYTQESLSLSP
light: not shown
notes: as for B1
On to B7, for which the “relative binding activity” value is 60 in experiment [1], 103 in experiment [2] and 93 in experiment [3].

B8: IL6R-BP142/IL6R-L (antibody, human IgG1, kappa)
heavy: QVQLQESGPGLVKPSETLSLTCAVSGHSISHDHAWSWVRQPPGEGLEWIGFISYSGITNYNPSLQGRVTISRDNSKNTLYLQMNSLRAEDTAVYYCARSLARTTAMDYWGEGTLVTVSSASTKGPSVFPLAPSSKSTSGGTAALGCLVKDYFPEPVTVSWNSGALTSGVHTFPAVLQSSGLYSLSSVVTVPSSSLGTQTYICNVNHKPSNTKVDKKVEPKSCDKTHTCPPCPAPELLGGDSVFLFPPKPKDTLMISRTPEVTCVVVDVSHEDPEVKFNWYVDGVEVHNAKTKPREEQYNSTYRVVSVLTVLHQDWLNGKEYKCKVSNNALPAPIEKTISKAKGQPREPQVYTLPPSRDELTKNQVSLTCLVKGFYPSDIAVEWESNGQPENNYKTTPPVLDSDGSFFLYSKLTVDKSRWQQGNVFSCSVMHEALHNHYTQESLSLSP
light: not shown
notes: as for B1
B8: the “relative binding activity” value stood at 98 in experiment [1], 106 in experiment [2] and 97 in experiment [3].

B9: IL6R-BP118/IL6R-L (antibody, human IgG1, kappa)
heavy: QVQLQESGPGLVKPSETLSLTCAVSGHSISHDHAWSWVRQPPGEGLEWIGFISYSGITNYNPSLQGRVTISRDNSKNTLYLQMNSLRAEDTAVYYCARSLARTTAMDYWGEGTLVTVSSASTKGPSVFPLAPSSKSTSGGTAALGCLVKDYFPEPVTVSWNSGALTSGVHTFPAVLQSSGLYSLSSVVTVPSSSLGTQTYICNVNHKPSNTKVDKKVEPKSCDKTHTCPPCPAPELLGGDSVFLFPPKPKDTLMISRTPEVTCVVVDVSHEDPEVKFNWYVDGVEVHNAKTKPREEQYNSTYRVVSVLTVLHQDWLNGKEYKCKVSNSALPAPIEKTISKAKGQPREPQVYTLPPSRDELTKNQVSLTCLVKGFYPSDIAVEWESNGQPENNYKTTPPVLDSDGSFFLYSKLTVDKSRWQQGNVFSCSVMHEALHNHYTQESLSLSP
light: not shown
notes: as for B1
For the molecule B9, the entries for the “relative binding activity” value in experiment [1], in experiment [2] and in experiment [3] were 101, 104 and 128, respectively.
